In publication PMC7347655, “Mutational analysis of the essential lipopolysaccharide-transport protein LptH of Pseudomonas aeruginosa to uncover critical oligomerization sites” (Scientific Reports, 2020):

Molecular target: the molecule itself
Test: SEC; 100 uL of purified protein (0.9-2.0 mg/mL, a stated concentration for each variant) on a TSK-GEL G3000PWXL column, 20 mM Tris-HCl pH 8.0, 250 mM NaCl, 0.7 mL/min, detection at 280 nm; oligomerization state estimated from the apparent MW by a calibration curve

B1: wild-type LptH (natural protein, Pseudomonas aeruginosa, UniProt Q9HVV7 25-175, looked up)
chain: LPSDREQPIRVQADSAELDDKQGVAVYRGDVVVTQGSTKLTGNTVTLKQDKNGDIEVVTSVGKPAYYEQKPAPDKDVTKAYGLTIQYFVTQNRVVLIDQAKVIQEGNTFEGEKIVYDTQRQIVNAGRATGSQVTSPRPRIDMVIQPKKKAQ
notes: Cloned NdeI/HindIII into pET28b; the vector's linker between the His tag and the protein is not described; no tag removal is described; also called LptH6His; PA4460; not shown: His6, N-terminal, kept
With B1 the “stoichiometry N” value was 2.

B2: LptH_β15mut (natural protein)
chain: LPSDREQPIRVQADSAELDDKQGVAVYRGDVVVTQGSTKLTGNTVTLKQDKNGDIEVVTSVGKPAYYEQKPAPDKDVTKAYGLTIQYFVTQNRVVLIDQAKVIQEGNTFEGEKIVYDTQRQIEPDGRATGSQVTSPRPRIDMVIQPKKKAQ
notes: not shown: His6, N-terminal, kept
B2 was tested, and the “stoichiometry N” value was 2.

B3: LptH_β15del (natural protein)
chain: LPSDREQPIRVQADSAELDDKQGVAVYRGDVVVTQGSTKLTGNTVTLKQDKNGDIEVVTSVGKPAYYEQKPAPDKDVTKAYGLTIQYFVTQNRVVLIDQAKVIQEGNTFEGEKIVYDTQRQIGRATGSQVTSPRPRIDMVIQPKKKAQ
notes: As m1 with a 3-residue deletion in strand β15; aggregation prevented concentrations above 0.9 mg/mL; not shown: His6, N-terminal, kept
B3 was tested, and the “stoichiometry N” value was 2.
